Laboratory results reported in publication PMC10275993.

Molecular target: acidic H8 loop of karyopherin β2 (KAPB2-H8)
Assay: turbidity (OD600) of liquid-liquid phase separation, critical salt concentration; 50 μM R-DPR peptide mixed with 50 μM KAPB2-H8 peptide in 10 mM HEPES pH 7.4 with 0 to 400 mM NaCl; droplets also imaged by confocal microscopy

Binder	NaCl concentration until which the droplets remained [mM]	critical salt concentration (NaCl at which the droplets disappeared) [mM]
GRGRGRGRGRGRGRGRGRGRGRGRGRGRGRGRGRGRGRGR [(GR)20]	300	
PRPRPRPRPRPRPRPRPRPRPRPRPRPRPRPRPRPRPRPR [(PR)20]		250
